Reference: the nanobody polyreactivity screen of Harvey et al. (2022)

Experiment: yeast display, Sf9 membrane polyspecificity reagent, FACS + sequencing; frameworks hold sequencing errors
In short: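 Nanobodies from a synthetic yeast display library (Saccharomyces cerevisiae BJ5465), induced 36–48 hours with galactose, were stained 1 hour at 4 °C with 10% biotinylated, detergent-solubilized Sf9 membrane reagent, enriched on streptavidin microbeads, then FACS-sorted. Anti-HA (expression) and streptavidin (reagent binding) fluorescence set low and high (top ~1%) gates. Polyreactivity labels come from the gate of origin. Genes were colony-PCR amplified, MiSeq 2 × 250 sequenced and filtered by CDR length.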

QVQLVESGGGLVQAGGSLRLSCAASGFILYYYAMGWYRQAPGKERELVASISRRGGSTYYADSVKGRFTISRDNAKNTVYLQMNSLKPEDTAVYYCAATETTSRRFGYDYWGQGTQVTVSS
polyreactivity (PSR sort gate): high polyreactivity

QVQLVESGGCLVQARGSLRLSCAASGSTFTYNTMGWYRQAPGKESELVAGITKSGGSTYYADSVKGRFTISRDKAKNTVYLQMNSLKPEDTAVYYCATSTSRRYGSRHNYWGQGTQVTVSS
polyreactivity (PSR sort gate): high polyreactivity

QVQLVESGGGLVQAGGSLGLSCAASGRSLIWYAMGWYRQAPGKERELVAAITSGGRTYYADSVKGRFTISRDNAKKTVYLQMNSLKPEDTAVYYCNKVGRDPGRDFWGQGTQVPVSS
polyreactivity (PSR sort gate): high polyreactivity

QVQLVESGGGLVQAGGSLRLSCAASGFTFRNYAMGGYRQAPGKERELVAAISKSGGSTYYADSVKGRFTISRDNAKNTVYLQMNSLNPEDTAVYYCATDYLYVYGFEYYYWGQGTQVTVSS
polyreactivity (PSR sort gate): high polyreactivity

QVQLVESGGRLVQAGGSLRLSCAASGRNFGLYAMGWYRQAPGKEREFVAAIRWIGGGTYYADSVKGRFTISRDNAKNTVYLQMNSLKPEDTAVYYCAARLSVAWVGYDYWGQGTQVTVSS
polyreactivity (PSR sort gate): low polyreactivity

QVQLVESGGGLVQAGGSLRLSCAASGRIFTSYAMGWYRQAPGKERELVAAISRRGDSTYYADSVKGRFTISRDNAKNTVYLQMNSLKPEDTAVYYCNARSSRIWDYYGFDYWGQGTQVTVSS
polyreactivity (PSR sort gate): high polyreactivity

QVQLVESGGGLVQAGGSLRLSCAASGAIFFVNDMGWYRQAPGKERELVAAITYSSGGTYYADSVKGRFTISRDNAKNTVYLQMNSLKPEDTAVYYCAVDFFLSYYSDMDYWGQGTQVTVSS
polyreactivity (PSR sort gate): low polyreactivity

QVHLYESGGGLVQLGGSLRLSCAASGTIFDYYTMGWYSQAPGKEREFVAAIAYGTNTYYADSVKGRFSISRDNAKHTVFLLLYSLKPEDTAVYYCATVGPRGLYYYWGQGTQVTVSS
polyreactivity (PSR sort gate): high polyreactivity

QVQLVESGGGLVQAGGSLRLSCAASGRTFYYNTMGWYRQAPGKERELVAAISWRTGSTYYADSVKGRFTISRDNAKNTVYLQMNSLKPEDTAVYYCAAVLFGYPRTIGTWYDRYYYWGQGTQVTVSS
polyreactivity (PSR sort gate): high polyreactivity

QVHLVESGGGLVQAGGSLRLSCASYGSTLELNAMGWYRQAPGKERELVAAITSSGGRTYYADSVKGRFTISRDNAKNTVYLQMKSLKPEDTAVYYCAAEPGQQRVVDRYDYWGQGTQVTVSS
polyreactivity (PSR sort gate): low polyreactivity

QVQLVESGGGLVQAGGSLRLSCAASGIIFRHNAMGWYRQAPGKERELVAAISSGGNTYYADSVKGRFTISRDNAKNTVYLQMNSLKPEDTAVYYCAADVQDRYHRAWYDYWGQGTQVTVSS
polyreactivity (PSR sort gate): low polyreactivity

QVQLVESGGRLVQAGGSLRLSCAASGRIFARYAMGWYRQAPGKERELLASINSGGNTYYADSVKGRFTISRDNAKNTVYLQMNSLKPEDTAVYYCAAVVGRRPSSRSRFEYDYWGQGTQVTVSS
polyreactivity (PSR sort gate): low polyreactivity

QVQQQESGGGLVQAGGSLRLSCAASGSISRLDYMGWYRQATGKERELVAAIDNGSTTYYADSVKGRLTISRDNAKYTVYLQMNSLKPEDNAVYFCAAVRGRGGTHAYWGQGTQVTVSG
polyreactivity (PSR sort gate): low polyreactivity

QVQRVESGGGLVQAGGSLRLSCAASGRIFLTNARGWYRQAPGKERELVPAITSGGSTYYADSVKGRFTISRDNAKNTVYLQMNSLKPEDTAVYYCNDDTDRYWPYEYDYWGQGTQVTVSS
polyreactivity (PSR sort gate): low polyreactivity

QVQLVESGGGLVQAGGSLRLSCAASGSILRYYAMGWFRQAPGKERELVAAISYSGGSTYYADSVKGRFTISRDNAKNTVYLQMNSLKPEDTAVYYCNKLYDRGYDYWGQGTQVTVSS
polyreactivity (PSR sort gate): high polyreactivity

QFHLVETGRGLVQAGGSLRLSCAASGVTYSQYAMGWYRQAPGKERELVARISRRRGSTSYADSVKGRCTISRDNAKNTVYLQMNRMKPEDTAVYYCAKDSPSVYPGRFGNTGGYAYDYWGQGTQVTVSS
polyreactivity (PSR sort gate): high polyreactivity

QVQLVESGGGLVQAGGSLRLSCAASGRIFGGYAMGWYRQAPGKERELVAAIDLSGGSTYYADSVKGRFTISRDNAKNTVYLQMNSLKPEDNAVYYCAADAYPVYYYLSTYDPWYDYWGQGTQVTVSS
polyreactivity (PSR sort gate): low polyreactivity

QVHLAESGGGLVQAGGSLRLSCASSGIIFYFYAMGWYRQAPGKERELVAAISGTGGRTYYADSVKGRFTISRDNAKNTVYLQMNSLKPEDTAVYYCNADDTPVPSIRFDYWGQGTQVTVSS
polyreactivity (PSR sort gate): low polyreactivity

QVQLVESGGGLVQAGGSLRLSCAASGSIFTTYAMGWYREAPGKERELVAAITDTSSTNYADSVKGRFTISRDNAKKTVFLQMNSLKPEDTAVYYCAVDLGYEYDWGQGTQVTVSS
polyreactivity (PSR sort gate): low polyreactivity

QVQLEESGGGLVQAGGSLRLSCAASGSIFKGYAMGWYRQAPGKESELVAAISGGGGSTYYADSVKGRFTISRDNAKNTVYLQMNSLKPEDTAVYYCNRDDSWSPSGAYDYWGQGTQVNVSS
polyreactivity (PSR sort gate): low polyreactivity

QVQLVESGGGLVQAGGSLRLSCAASGIIFDYYAMGWYRPAPGKERELVAAINWNGGTPYYADSVKGRFTISRDYAKKTVFLQMNSLKPEDSAVYYCNTRGRYLMVDWGHGTQVTVSS
polyreactivity (PSR sort gate): high polyreactivity

QVQLVESGGGLDQAGGRLRLSSAASGYTFRNYAKGLYRQATGQERELVAAITSSTSSTYYADSVKGRFTISRDNAKNTVYLQMNSLKPEDTAVYYCNRVWSPYMDYWGQGTQVTVSS
polyreactivity (PSR sort gate): high polyreactivity

QVQLVESGGGLVQAGGSLRLSCAASGITFGRNTMGWYRQAPGKERELVAAIDSGGNTYADSVKGRFTISRDNAKNTVFLQMNSLKPEDTAVYYCAVDGGEFSSYGYWGQGTQVTVSS
polyreactivity (PSR sort gate): low polyreactivity

QVQLVESGGGLVQAGGSLRLSCAASGGIFWAYAMGWYRQAPGKERELVAAITTLGTSTYYADSVKGRFTISRDNAKNTVYLQMNSLKPEDTGVYYCAAVDPYSYSFDYWGQGTQVTVSS
polyreactivity (PSR sort gate): high polyreactivity

QVQLVESGGGLVQAGGSLRLSCAASGFTYLYAMGWYRQAPGKESELDAAISYSGGSTYYADSVKGRFTISRDNAKNTVYLQMNSMKPEDTAVYYCAAGYGTVRGVSYDYWGQGTQVTVSS
polyreactivity (PSR sort gate): low polyreactivity

QVQLVESGGGLFQAGGSLRLSCAPSGRIFTTYAMGWYRQAPGKDRELVAAISRSGGSSYYADSVKGRFTISRDNAKNTVYLQMKSLKQEDTAVYFCAAVPTSNSFRSSFYNWGQGTQVTVSS
polyreactivity (PSR sort gate): high polyreactivity

QVQLVESGGGLVQAGGSLRLSCAASGFTFRFYAMGWYRQAPGKERELVAVITSRGTRTYYADSVKGRFTISRDNAKNTVYLQMNSLKPEDTAVYFCAKDFAFNGGISKYDYWGQGTQVTVSS
polyreactivity (PSR sort gate): high polyreactivity

QVQLVESGVGLVQAGGSLRLSCAASGRILYPNTMGWYRQAPGKERELVAAISGSGYRTYYADSVKGRFTISRDNAKNTVYLQMNSLKPEDTAVYYCAASGYWPFRSGFGYWGQGTQVTVSS
polyreactivity (PSR sort gate): high polyreactivity

QVQLVESGGGLVQAGGSLRLSCAASGRIFHFNAIGWYRQAPGKERELFARIDTRGDSTYYADSVKGRFTISRDNAKNTVYLQMNSLKPEDTAVYYCAARGSRDGPYSGYGYWGQGTQVTVSS
polyreactivity (PSR sort gate): low polyreactivity

QVQLVESGGGLVQAGGSLRLSCADSGLTFGSNGMGWYRQAPGKERELVAAISRGGSTSYAVSVKGRFTISRDNAKNTVYLQMNSLKPEDTAVYYCAARSYRYSYRYRAFDYWGQGSQVTVSS
polyreactivity (PSR sort gate): high polyreactivity

QVQLVESGGGLVQAGGSLRLSCAASGRTFVVYAMGWYRQAPGKERELVAVIRVIGGSTNYADSVKGRFTISRDNAKNTVYLQMNSLKPEDTAVYYCAADGVVVVAADMYYWGQGTQVTVSS
polyreactivity (PSR sort gate): low polyreactivity

QVQLVESGGGLVQAGGSLRLSCAASGGTFAIYAMGWYRQAPGKYRELVASINSGGSTNNADSVKGRFTISRDNAKNTVYFQLNLLKPEDTAVYYCNRGYLGYFRYDYWGQGTQVTVSS
polyreactivity (PSR sort gate): high polyreactivity

QVQLVESGGGLVQAGGSLRLSCAASGRIFAYYAMEWYRQAPGKERELVAAITRSGARTYYADSVKGRFTISRDNAKNSVYLQMNSLKPEDTAVYYFAAEGVRIGTRYDYWGQGTQVTVSS
polyreactivity (PSR sort gate): high polyreactivity

QVHLVESGGGLVHAGGSLRLTCAASGITSLRYAMGWYRQAPGKEREFVAAIRTIGGSTYYADSVKGRFTISRDNAKNTVYLEMNSLKPEDTPVYYCAALYFLYRSGSSHLDSWGQGTQVTVSS
polyreactivity (PSR sort gate): high polyreactivity

QVQLVESGGGLVQAGGSLRLSCAASGRTFRYYVMGWYRQAPGKERELVAAISRTGGNTYYADSVKGRFTISRDNAKNTVYLQMNSLKPEDTAVYYCNTVRRPSSWRYDYWGQGTQVTVSS
polyreactivity (PSR sort gate): high polyreactivity

QVQLVESGGGLVQAGGSLRLSCAASGLIFWYNAMGWDRQATGKEREFVAAITSDGGRTYYADSVKGRFTISRDNAKNTVYLQMNSLKTEDTAVYYCTARGYGYLGRKGGYSYGYYYWGQGTQVTVSS
polyreactivity (PSR sort gate): low polyreactivity

QVQLVESGGGLVQAGGSLRLSCAASGRTFRYNTMGWYRPAPGKERELVAAISSGGGRTYYADSVKGRFTISRDNAKNTVYLQMNSLIPEDTAVYYCAADRYFRSRRSYEYWGQGTQVTVSS
polyreactivity (PSR sort gate): low polyreactivity

QVQLVESGGGLVQAGGSLRLSCAASGRIFYWYAMGWYRQAPGKERELVAAISGSDGSTYYADSVKGRFTISRDNAKNTVYLQMNSLKPEDTAVYYCADEGSYPRMDYWGQGTQVTVSS
polyreactivity (PSR sort gate): low polyreactivity

QVQLVESGGGLVQAGGSLRLSCAASGLIFQVYDMGWYRQAPGKERELVAAISSGSNTNYADSVKGRFTISRDNAKNTVYLQMNSRKPEDTAVYYCAASWGYGALTPDMGYWGQGTQVTVSS
polyreactivity (PSR sort gate): low polyreactivity

QVQLQESGGGMVQAGGSLRLSSAASGYISWADYMGWYRQAPGKERELVAGIGYGSTTYYADSVKGRFTISRDNAKNTAYLQMNSLKPEDTAVYYCAVGCYRDTAYKYWGQGTQVTVSS
polyreactivity (PSR sort gate): low polyreactivity

QVQLVESGGGLVQAGGSLRLSCAASGRTFWVNTMGWYRQAPGKERELVAGITRSGTRTYYADSVKGRFTISRDNAKNTVYLQMNSLKPEDTAVYYCATGPWRYRYDYWGQGTQVTVSS
polyreactivity (PSR sort gate): low polyreactivity

QVQLVESGGGLVQAGGSLRLSCAASGIIFTYYAMGWYRQAPGKERELVAAITSSAGSTYYADSVKGRFTISRDNAKNTVYLQMNSLKPVDTAVYYCAAYSVYYYQGDDYWGQGTQVTVSS
polyreactivity (PSR sort gate): high polyreactivity

QVQLVESGGGLVQAGGSLRLSCAASGIIFPYNTMGWYRQAPGKERELVASIDDGGSTNYADSVKGRFTISRDNAKNTVYLQMNSLKPEDTAVYYCNADLFFIYVRQPGYDYWGQGTQVTVSS
polyreactivity (PSR sort gate): low polyreactivity
